Consider eight molecules from patent publication US20240018252A1.

The chains are these.
B1: Combo_Rd4_0.6nM_C29 LCQ05/N297Q/K222R Aclys vc0101 (antibody, human IgG1, part only)
heavy: EVQLLESGGGLVQPGGSLRLSCAASGFTFSSYPMSWVRQAPGKGLEWVSAIGGSGGSLPYADSVKGRFTISRDNSKNTLYLQMNSLRAEDTAVYYCARYWPMDIWGQGTLVTVSS
light: EIVLTQSPGTLSLSPGERATLSCRASQSVSSSYLAWYQQKPGQAPRLLMYDASIRATGIPDRFSGSGSGTDFTLTISRLEPEDFAVYYCQQYQSWPLTFGQGTKVEIK
chain: GGLLQGPP
modifications: LCQ05 tag; Aclys vc0101 drug conjugate
B2: Combo_Rd4_0.6nM_C29 H7c/N297A/K222R AmPEG6 Aur3377 (antibody, V domains shown)
VH: EVQLLESGGGLVQPGGSLRLSCAASGFTFSSYPMSWVRQAPGKGLEWVSAIGGSGGSLPYADSVKGRFTISRDNSKNTLYLQMNSLRAEDTAVYYCARYWPMDIWGQGTLVTVSS
VL: EIVLTQSPGTLSLSPGERATLSCRASQSVSSSYLAWYQQKPGQAPRLLMYDASIRATGIPDRFSGSGSGTDFTLTISRLEPEDFAVYYCQQYQSWPLTFGQGTKVEIK
modifications: H7c tag LLQG (SEQ ID NO: 454), N297A and K222R (EU) in the human IgG1 heavy chain constant region; amino-PEG6-C2-Aur3377 joined by transglutaminase
B3: Combo_Rd4_0.6nM_C29 H7c/N297A/K222R AmPEG6 Aur0131 (antibody, V domains shown)
VH: EVQLLESGGGLVQPGGSLRLSCAASGFTFSSYPMSWVRQAPGKGLEWVSAIGGSGGSLPYADSVKGRFTISRDNSKNTLYLQMNSLRAEDTAVYYCARYWPMDIWGQGTLVTVSS
VL: EIVLTQSPGTLSLSPGERATLSCRASQSVSSSYLAWYQQKPGQAPRLLMYDASIRATGIPDRFSGSGSGTDFTLTISRLEPEDFAVYYCQQYQSWPLTFGQGTKVEIK
modifications: H7c tag LLQG (SEQ ID NO: 454), N297A and K222R (EU) in the human IgG1 heavy chain constant region; amino-PEG6-C2-Aur0131 joined by transglutaminase
B4: A02_Rd4_6nM_C08 (antibody, V domains shown)
VH: EVQLLESGGGLVQPGGSLRLSCAASGFTFSSYAMNWVRQAPGKGLEWVSAILDSGGSTYYADSVKGRFTISRDNSKNTLYLQMNSLRAEDTAVYYCARYWPMSPWGQGTLVTVSS
VL: EIVLTQSPGTLSLSPGERATLSCRASQSVSFLYLAWYQQKPGQAPRLLMYDASIRATGIPDRFSGSGSGTDFTLTISRLEPEDFAVYYCQQYGSWPLTFGQGTKVEIK
B5: A02_Rd4_0.6nM_C18 (antibody, V domains shown)
VH: EVQLLESGGGLVQPGGSLRLSCAASGFTFSSYAMNWVRQAPGKGLEWVSAVLDSGGSTYYADSVKGRFTISRDNSKNTLYLQMNSLRAEDTAVYYCARYWPMSLWGQGTLVTVSS
VL: EIVLTQSPGTLSLSPGERATLSCRASQSVSELYLAWYQQKPGQAPRLLMYDASIRATGIPDRFSGSGSGTDFTLTISRLEPEDFAVYYCQQYFGWPLTFGQGTKVEIK
B6: A02_Rd4_6nM_C19 (antibody, V domains shown)
VH: EVQLLESGGGLVQPGGSLRLSCAASGFTFSSYAMNWVRQAPGKGLEWVSAISDSGGSRWYADSVKGRFTISRDNSKNTLYLQMNSLRAEDTAVYYCARYWPMSDWGQGTLVTVSS
VL: EIVLTQSPGTLSLSPGERATLSCRASQSVSVLYLAWYQQKPGQAPRLLMYDASIRATGIPDRFSGSGSGTDFTLTISRLEPEDFAVYYCQQYLAWPLTFGQGTKVEIK
B7: A02_Rd4_0.6nM_C06 (antibody, V domains shown)
VH: EVQLLESGGGLVQPGGSLRLSCAASGFTFSSYAMNWVRQAPGKGLEWVSAISDSGGSAWYADSVKGRFTISRDNSKNTLYLQMNSLRAEDTAVYYCARYWPMSLWGQGTLVTVSS
VL: EIVLTQSPGTLSLSPGERATLSCRASQSVSVLYLAWYQQKPGQAPRLLMYDASIRATGIPDRFSGSGSGTDFTLTISRLEPEDFAVYYCQQYQRWPLTFGQGTKVEIK
B8: A02_Rd4_6nM_C04 (antibody, V domains shown)
VH: EVQLLESGGGLVQPGGSLRLSCAASGFTFSSYAMNWVRQAPGKGLEWVSAIMSSGGPLYYADSVKGRFTISRDNSKNTLYLQMNSLRAEDTAVYYCARYWPMALWGQGTLVTVSS
VL: EIVLTQSPGTLSLSPGERATLSCRASQSVSALYLAWYQQKPGQAPRLLMYDASIRATGIPDRFSGSGSGTDFTLTISRLEPEDFAVYYCQQYQVWPLTFGQGTKVEIK

Several values for one entry are separate records, joined by “and”; a condition that tells them apart may be missing. Equal entries are not always repeated.

Chain of cynomolgus BCMA (cynomolgus (given as cyBCMA, Cyno)) (chain, as listed by the source): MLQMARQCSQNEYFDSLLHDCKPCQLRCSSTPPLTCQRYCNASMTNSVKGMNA
Chain of human BCMA on BCMA-expressing tumor cells (human) (Q02223 whole entry): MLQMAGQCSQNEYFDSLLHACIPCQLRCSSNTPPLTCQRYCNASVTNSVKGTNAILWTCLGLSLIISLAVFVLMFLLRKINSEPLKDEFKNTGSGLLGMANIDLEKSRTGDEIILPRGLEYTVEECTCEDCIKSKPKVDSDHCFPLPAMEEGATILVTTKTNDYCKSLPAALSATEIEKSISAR

One assay has as its target human BCMA on BCMA-expressing tumor cells (human) (UniProt Q02223). The assay can be described thus: cell-based or functional assay.
Consider B1, for which the EC50, cell viability (CellTiter-Glo, 96 h), KMS12BM LUCGFP (+) is 1.19 nM and 0.18 µg/mL; the EC50, cell viability (CellTiter-Glo, 96 h), L363 LUCGFP (+) was 1.05 nM and 0.16 µg/mL; the EC50, cell viability (CellTiter-Glo, 96 h), MM1.S LUCGFP (BCMA++) is 0.34 nM and 0.05 µg/mL.
With B2, the EC50, cell viability (CellTiter-Glo, 96 h), KMS12BM LUCGFP (+) is 5.01 nM and 0.75 µg/mL; the EC50, cell viability (CellTiter-Glo, 96 h), L363 LUCGFP (+) was 1.36 nM and 0.2 µg/mL; the EC50, cell viability (CellTiter-Glo, 96 h), MM1.S LUCGFP (BCMA++) is 0.3 nM and 0.05 µg/mL.
Take B3: the EC50, cell viability (CellTiter-Glo, 96 h), KMS12BM LUCGFP (+) is 0.85 nM and 0.13 µg/mL; the EC50, cell viability (CellTiter-Glo, 96 h), L363 LUCGFP (+) is 0.81 nM and 0.12 µg/mL; the EC50, cell viability (CellTiter-Glo, 96 h), MM1.S LUCGFP (BCMA++) was 0.23 nM and 0.03 µg/mL.

The next assay has as its target cynomolgus BCMA (cynomolgus (given as cyBCMA, Cyno)). The assay can be described thus: SPR, IgG immobilized, cyno BCMA analyte, 37 C. (In general: In SPR one partner is held on a chip, and binding of the other changes the refractive index at the surface.)
Consider B4, for which the Kd (in general, a measure of binding affinity in units of concentration) was determined as 5.07 nM; the koff (commonly a measure of how fast the partners let go of each other) is 0.0113 s⁻¹; the kon (commonly the rate constant with which the complex forms) was 2.23e+06 M⁻¹ s⁻¹.
For B5, in that order: 0.197 nM, 0.000639 s⁻¹ and 3.24e+06 M⁻¹ s⁻¹.
For B6, in that order: 0.26 nM, 0.000661 s⁻¹ and 2.54e+06 M⁻¹ s⁻¹.
As for B7, the Kd was determined as 0.058 nM, the koff amounted to 0.000105 s⁻¹ and the kon is 1.81e+06 M⁻¹ s⁻¹.
In the case of B8, the equilibrium dissociation constant (Kd) turned out to be 0.381 nM, the koff amounted to 0.000831 s⁻¹ and the kon amounted to 2.18e+06 M⁻¹ s⁻¹.
